Data on two molecules can be found in US20160084841A1, “Method for Predicting Clinical Effect of Immunotherapy” (INTERNATIONAL INSTITUTE OF CANCER IMMUNOLOGY, INC., priority 2013, published 2016).

Assay [1] concerns anti-WT1126 peptide IgG antibody. As to the kind of experiment: ELISA using variant WT1 antigen peptide as immobilized antigen to assay anti-WT1126 peptide IgG antibody. Type of assay: binding, human. The conditions noted are these: serum of pancreatic cancer patient given WT1126 peptide; increase in titer detected; FIG. 20. As to the method: WT126-134 (SEQ ID NO: 65), WK126-134 (SEQ ID NO: 66), WT128-134 (SEQ ID NO: 67), WT126-132 (SEQ ID NO: 68), WT129-134 (SEQ ID NO: 69), WT126-131 (SEQ ID NO: 70), and WT126-130 (SEQ ID NO: 71) were synthesized by GL Biochem (Shanghai) Corporation Ltd. WT1-frg1 (SEQ ID NO: 64) was prepared in the same way as in the aforementioned WT1-frg3 (SEQ ID NO: 57).
The measurement of the antibody titer using WT1-frg1 (SEQ ID NO: 64) was performed in the same way as in the aforementioned WT1-frg3 (SEQ ID NO: 57). The measurement of the antibody titer using WT126-134 (SEQ ID NO: 65), WK126-134 (SEQ ID NO: 66), WT128-134 (SEQ ID NO: 67), WT126-132 (SEQ ID NO: 68), WT129-134 (SEQ ID NO: 69), WT126-131 (SEQ ID NO: 70), or WT126-130 (SEQ ID NO: 71) was performed in the same way as in the aforementioned WT332-347 (SEQ ID NO: 58), etc.
Background: ELISA stands for enzyme-linked immunosorbent assay.

Assay [2] relates to anti-WT1235 peptide IgG antibody. The assay can be described thus: ELISA using variant WT1 antigen peptide as immobilized antigen to assay anti-WT1235 peptide IgG antibody. Type of assay: binding, human. The conditions noted are these: serum of thymic carcinoma patient given WT1235 peptide; increase in titer detected; FIG. 19. The procedure:
WK235-243 (SEQ ID NO: 62) and WT237-243 (SEQ ID NO: 63) were synthesized by GL Biochem (Shanghai) Corporation Ltd. WT1-frg2 (SEQ ID NO: 61) was prepared in the same way as in the aforementioned WT1-frg3 (SEQ ID NO: 57).
The measurement of the antibody titer using WT1-frg2 (SEQ ID NO: 61) was performed in the same way as in the aforementioned WT1-frg3 (SEQ ID NO: 57). The measurement of the antibody titer using WK235-243 (SEQ ID NO: 62) or WT237-243 (SEQ ID NO: 63) was performed in the same way as in the aforementioned WT332-347 (SEQ ID NO: 58), etc.

B1: WT1-frg1: long-chain peptide (182 aa, SEQ ID NO: 64) containing the whole length of the administered WT1126 peptide (protein)
chain: MGSDVRDLNALLPAVPSLGGGGGCALPVSGAAQWAPVLDFAPPGASAYGSLGGPAPPPAPPPPPPPPPHSFIKQEPSWGGAEPHEEQCLSAFTVHFSGQFTGTAGACRYGPFGPPPPSQASSGQARMFPNAPYLPSCLESQPAIRNQGYSTVTFDGTPSYGHTPSHHAAQFPNHSFKHEDPM
For B1, in assay [1], the “ability as ELISA antigen to measure anti-WT1126 IgG antibody level in patient's serum” value is on record as “could measure an anti-WT1126 IgG antibody level in patient's serum”.

B2: WT1-frg2: long chain peptide (145 aa, SEQ ID NO: 61) containing the whole length (Y2M) of the administered WT1235 peptide (protein)
chain: DPMGQQGSLGEQQYSVPPPVYGCHTPTDSCTGSQALLLRTPYSSDNLYQMTSQLECMTWNQMNLGATLKGVAAGSSSSVKWTEGQSNHSTGYESDNHTTPILCGAQYRIHTHGVFRGIQDVRRVPGVAPTLVRSASETSEKRPFM
Take B2: the “ability as ELISA antigen to measure anti-WT1235 IgG antibody level in patient's serum” value in assay [2] is “could measure an anti-WT1235 IgG antibody level in patient's serum”.
